Source: article PMC5155689, “Pro-invasive Effect of Proto-oncogene PBF Is Modulated by an Interaction with Cortactin” (The Journal of Clinical Endocrinology and Metabolism, 2016)

Target: T1, Y174A PBF-HA (UniProt P53801 33-180, Y174A)
T1 construct: also called PBF mutant Y174A; phospho-null PBF mutant (Y174A)
T1 sequence (looked up): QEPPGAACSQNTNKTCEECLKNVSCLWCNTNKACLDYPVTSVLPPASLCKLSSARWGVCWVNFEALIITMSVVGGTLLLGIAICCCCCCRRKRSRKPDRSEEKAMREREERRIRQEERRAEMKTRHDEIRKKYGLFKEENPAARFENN
Experiment: co-IP; myc-tagged CTTN and HA-tagged PBF (WT or Y174A) transfected in MCF-7 and HeLa cells; in HeLa also after 50 nM dasatinib or vehicle
Conditions: partners not purified

fold change of binding against WT PBF: > 2 fold
B1: human Myc-CTTN (cortactin) (natural protein, UniProt Q14247 1-550, looked up)
chain: MWKASAGHAVSIAQDDAGADDWETDPDFVNDVSEKEQRWGAKTVQGSGHQEHINIHKLRENVFQEHQTLKEKELETGPKASHGYGGKFGVEQDRMDKSAVGHEYQSKLSKHCSQVDSVRGFGGKFGVQMDRVDQSAVGFEYQGKTEKHASQKDYSSGFGGKYGVQADRVDKSAVGFDYQGKTEKHESQRDYSKGFGGKYGIDKDKVDKSAVGFEYQGKTEKHESQKDYVKGFGGKFGVQTDRQDKCALGWDHQEKLQLHESQKDYKTGFGGKFGVQSERQDSAAVGFDYKEKLAKHESQQDYSKGFGGKYGVQKDRMDKNASTFEDVTQVSSAYQKTVPVEAVTSKTSNIRANFENLAKEKEQEDRRKAEAERAQRMAKERQEQEEARRKLEEQARAKTQTPPVSPAPQPTEERLPSSPVYEDAASFKAELSYRGPVSGTEPEPVYSMEAADYREASSQQGLAYATEAVYESAEAPGHYPAEDSTYDEYENDLGITAVALYDYQAAGDDEISFDPDDIITNIEMIDDGWWRGVCKGRYGLFPANYVELRQ
notes: cortactin (CTTN), human; Origene plasmid No. RC223259; the isoform of the clone follows from the catalogue number; also called myc-tagged CTTN; source: plasmid bought: Origene
